Assay results taken from the domain aggregation screens of Martell et al. (2025).

Assay: soluble fraction after stress (log2 fold change); higher = more stays soluble; pooled small domains, quantitative proteomics
Conditions: stress: 75 degC
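Also: 20 min heating vs room temperature control held 20 min.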

Row | Sequence | soluble fraction (log2)
1 | HMQPADYSDLYAAAKSAGEADMRAAFALTDKQERTAAVNAARETIKAALSEEQLADANLGSALKKLEAGV | -0.122
2 | HMQPASPELNNQEKKVLQALPENEVIHIDELSDKIQIPVGELLTVLLSLEMKETVIQEPGKFFRRR | -1.29
3 | HMQPDFLDAKASLALLGVRPQTLYAYVSRGAIRSVPQPGTKAHLYSRSDIERVMARAAARAG | -1.34
4 | HMQPDYRVLYSNFSDKDGGAIVAALEKMNVPYKFSEGGSAILVPAGQVHQARLKLAADGLPK | 0.0648
5 | HMQPLGHDLTERELDVLALMVTGMNNSEIADKLVVSRSTIKYHVSNILSKLQATSRTEAVAYALQQNLVH | -2.51
6 | HMQPQIDFEIDVEVRASSLRIVAAPNSDVLVATVGRGEHVVQLTYPKDGWVMIRTADDRVGFVPESLLL | -2
7 | HMQPQYSVLFSNIEEKDGGSIITLLQQGNVPYKVENGGTTILVPANRANELRLTLAAQGLPK | 0.449
8 | HMQPVLSDAEVNDLKNIAGGERGYNQLMDWAGNNLTAQDAKSYDDVLATGNKAAISFAIKALMGQYEDAN | -0.0478
9 | HMQQEAVNLVQSRGQQAIEPVHIMQGVMKVGENVTNFIFQKLGMNGQQVALVVDKQIDSLPKVSGGEPYL | 0.124
10 | HMQQEAVSGKLLQLDLAKKEGRLSTDLGREVLFHIPKPELFVHLSVGQRIIIKLDAGQEAVGV | -0.178
11 | HMQQELDAFKLLITVSGVGPKAAMAVLSVLPPDRLSIAVSSGDVKSIQSAQGVGKKTAERIVLELKDKM | -0.906
12 | HMQQIEIEEPITVKNLSAVAGLKASEIIAKLMKLGVMSTINQVMERQHAEEIAGEYGFELVVK | -0.132
13 | HMQQISDPQVLRPMAEEVLHQSQKVVQDYKGGNKNAFHALVGQMMKKTQGKGNPQVIGQVLSELLDE | 0.98
14 | HMQQKNWIVRDGDGKIYGPFTTEQVLVQIDRGYFVGGEEVALYPGGRWIAISGAPEFYDRLLDALAMEG | -0.995
15 | HMQQQLLHIVFGGELKDVTGIEFEDLSKMDFVGAFSNYKDAYDAWKSAAQRTVDHAEMRYFILHAHKLL | -6.11
16 | HMQQRTVEHVDTAVEALALSIGERAGVDLPYMAHLTGKTQEDLIEDLTGVIFPVPGTEPLRYVTADDYLS | 0.181
17 | HMQQSVSSLVRRYMLQTIPGINFSLKSTALALNMSDRTLQRKLLSENTSYQIILDDVRKELAIKYLKE | -3.23
18 | HMQQVIQSGQKVQLMATDGSFQVSAEGVALKNGSVGEVIGVRMPSGRVISGVVSASGAVEVR | 0.125
19 | HMQQVLGDVNEDDKVDFLDAIVVLRHDAEIIQLTDNQMKAAEVNKDGKVDFLDAIMILRYDAEIIGS | -0.0321

Row | Sequence | soluble fraction (log2)
20 | HMQRDDMQIDRLIQIVFLLLSRNNLTAKQLAEELGVSTRTIYRDINILSVAGIPITSQKGYGGGLSLLQG | -0.608
21 | HMQRDELRYDQFLTALQNKEFTQLNVRFDDYTYLVTGTFQSGRPFSTRGPVSEEFIRLIESSGVQVTWLPM | -1.65
22 | HMQRDERYVYHTVLAGETIYSLSRKFNVTMDELLESNPALRSGVLTTGSEIRVLKAQMAQNFD | -1.25
23 | HMQRQGTVATQQTPLNIRSQPSLSAQVIGQAPKGATVAILGESGDWYQIRYQNITGYSSKQYI | 0.0804
24 | HMQRSVEDVFVQLRNGMDTYDMTQIEDALRILHGMELSTAQRDLLDKVQEAYNDLEYETGAALLAGFERIK | 0.134
25 | HMQRYFINEPVPEDQRLVLPKDIAHHLVDVLRAEQNDELEVALNDQKVYLARLISLNPATVELQSDLG | 0.465
26 | HMQRYFLEEAYQPSEKFELSAEAFHHIVHVMRMKPKDRVYLAFSDQQVIIAEITEITEEKVYLTEIEKEE | -3.23
27 | HMQRYYDVLGLQKGVSPEELKKTYRELSKKYHPDAHHNSPLRDLAEAKFKEINEAYEKIKEFLDNNF | -0.207
28 | HMQSAKLSYSDFMQKVNAGDVVSVKIQGPKISGVTTGGGKFMTYAPEDPTLVSTLMQKKVEVMAEP | 0.139
29 | HMQSAMALTKDLIEQQGKYYHRGQPFTGVGFAKNKKGKFVTEEPFKNGLLHGKRVNYDHNGHVLAREK | -0.105
30 | HMQSEESTHIGERMLNQALRAMHVEPSAVKEKQWEKLIRDYSVKNKQDILTDIGLGKRQSVMVAHQLLAI | -0.165
31 | HMQSEISRIGRILKERRLQLGYTQEYAAEKAGISYSYYTKIERGQQLPSLEVAMVLSKTFSLSMDRWL | -4.78
32 | HMQSFIEELLPVVDNFERSLAVVDPSDEIKNFLKGYEMIYNQLMEVLKSQGVEVIKTEGEEFDPNFHQA | -0.121
33 | HMQSHIVPDVKSQHIAQAKALLESKQMKAVVIDSNFVKGLPAGIVLDQTPIGGARVKENRTIYLTINTL | -1.56
34 | HMQSMEIDENEIPSIDKLSEYIEYFKRIYNALFDDKQLAITNIDVLERHFANNFNTLRFKMDE | 0.169
35 | HMQSNDAGELEAVVKGIIDANPKVVADYLAGNQKVVSFFVGQAMKATKGKANPKMVSEILGKLL | -0.0975
36 | HMQSQIAQLYNPLLGYVKKRINSREDAEDLTQDIFLKLSKSNKDGVDNLKSWLYTIAKNTITDYYRKKKII | -0.0844
37 | HMQSREISYSDFVASVERGEVATVILDGENIRFKGGDNVEYVTVRPADTNVTDLLIENQVVVRAEK | 0.231
38 | HMQSTVSTHQKTLALDTAQSGIPVFPVSSTHKRPLTDHGYKDATADADAVRKIWQQFPSAFV | 0.28
